Measured values published in publication PMC8172837.
Where “and” joins values, the source holds several entries; their conditions need not be identical. Identical values can stand only once.

Assays:
[1] = target: Aβ in the dimer and trimer bands of the culture media of C99 transfected CHO cells (isoform not determined) (human); experiment: SDS-PAGE and western blot of oligomer bands; CHO cell lysates (4% SDS lysis buffer, heated 10 min at 70 °C with 50 mM DTT) and lyophilised culture media 48 h after transfection; 4-12% NuPAGE bis-tris gels; detected with anti-Aβ W0-2
[2] = target: C99-derived hexameric Aβ42 (cell-derived amyloid-β 42 from CHO cells transfected with C99) (human) (UniProt P05067); experiment: as above
[3] = target: C99-derived hexameric Aβ42 (cell-derived amyloid-β 42 from CHO cells transfected with C99) (human) (UniProt P05067); experiment: GELFrEE fractionation by size and western blot; Aβ immunoprecipitated with W0-2 from media, boiled at 95 °C with DTT, separated on the GELFrEE 8100 system; fractions blotted with W0-2; hexamer in fraction 5
[4] = target: Hexameric Aβ from CHO cells transfected with C99 carrying the Arctic (E22G) FAD mutation (human); experiment: SDS-PAGE and western blot of oligomer bands; CHO cell lysates (4% SDS lysis buffer, heated 10 min at 70 °C with 50 mM DTT) and lyophilised culture media 48 h after transfection; 4-12% NuPAGE bis-tris gels; detected with anti-Aβ W0-2
[5] = target: Hexameric Aβ from CHO cells transfected with C99 carrying the Dutch (E22Q) FAD mutation (human); experiment: as above
[6] = target: Hexameric Aβ from CHO cells transfected with C99 carrying the Flemish (A21G) FAD mutation (human); experiment: as above
[7] = target: Hexameric Aβ from CHO cells transfected with C99 carrying the Iowa (D23N) FAD mutation (human); experiment: as above
[8] = target: Hexameric Aβ from CHO cells transfected with C99 carrying the Italian (E22K) FAD mutation (human); experiment: as above
[9] = target: vC42, assembly-impaired variant of Aβ42 (F19S, G37D) from transfected CHO cells (human); experiment: as above

Q: Which stoichiometry N [1] does the source give for “Aβ in the dimer and trimer bands of the culture media of C99 transfected CHO cells (isoform not determined) (peptide)” here?
A: 2 and 3

Q: What does the source list for “C99-derived hexameric Aβ42 (cell-derived amyloid-β 42 from CHO cells transfected with C99) (from UniProt P05067 672-770) (peptide)”?
A: stoichiometry N [2]: 6; stoichiometry N [3]: 6

Q: With “Hexameric Aβ from CHO cells transfected with C99 carrying the Arctic (E22G) FAD mutation (peptide)” as the substance, how does the stoichiometry N [4] read?
A: 6

Q: How did the stoichiometry N [5] turn out when “Hexameric Aβ from CHO cells transfected with C99 carrying the Dutch (E22Q) FAD mutation (peptide)” was run?
A: 6

Q: How did the stoichiometry N [6] turn out when “Hexameric Aβ from CHO cells transfected with C99 carrying the Flemish (A21G) FAD mutation (peptide)” was run?
A: 6

Q: With “Hexameric Aβ from CHO cells transfected with C99 carrying the Iowa (D23N) FAD mutation (peptide)” as the substance, how does the stoichiometry N [7] read?
A: 6

Q: For “Hexameric Aβ from CHO cells transfected with C99 carrying the Italian (E22K) FAD mutation (peptide)”, which stoichiometry N [8] is on record?
A: 6

Q: How did the stoichiometry N [9] turn out when “vC42, assembly-impaired variant of Aβ42 (F19S, G37D) from transfected CHO cells (peptide)” was run?
A: 2 and 3
